Patent publication US20150346200A1

Biological target: anti-human β-tryptase antibody
Assay: sandwich ELISA dose response: plate coated with anti-human β-tryptase antibody, β-tryptase calibrator titrated, detected with AP-conjugated anti-human β-tryptase, luminescence

EC50: 0.065 µg/mL
Substance: human β-tryptase (from UniProt Q15661 31-275) (enzyme)
